Square brackets hold non-standard residues; d marks the D form. Primed or numbered codes have the meaning given here. Ends that are not written are not given here. * marks the point of attachment. azaTic = 3,4-dihydropyridazine-2(H)-formic acid; Pro(5R-Ph) = O=C(O)[C@@H]1CC[C@H](c2ccccc2)N1; Pro(4Ph)″ = 4-phenylproline (Pro(4-phenyl)); Bip = N[C@@H](Cc1ccc(-c2ccccc2)cc1)C(=O)O; PEG8 = NCCOCCOCCOCCOCCOCCOCCOCCOCCC(=O)O; Gly(Nα-CH2CH2CONH2) = NC(=O)CCNCC(=O)O; 1Nal = N[C@@H](Cc1cccc2ccccc12)C(=O)O; 2Nal = N[C@@H](Cc1ccc2ccccc2c1)C(=O)O; dNMeY = CN[C@H](Cc1ccc(O)cc1)C(=O)O; Hydrocinnamoyl = O=C(CCc1ccccc1)*; Palmitoyl = CCCCCCCCCCCCCCCC(=O)*; NMeQ = CN[C@@H](CCC(N)=O)C(=O)O; Tic = O=C(O)[C@@H]1Cc2ccccc2CN1; NMeL = CN[C@@H](CC(C)C)C(=O)O; NMeV = CN[C@H](C(=O)O)C(C)C; NMeS = CN[C@@H](CO)C(=O)O; dNMeS = CN[C@H](CO)C(=O)O; Thz = O=C(O)[C@@H]1CSCN1; dNMeA = CN[C@H](C)C(=O)O; dTi1c = not defined here; Nleu = CC(C)CNCC(=O)O; βAla = NCCC(=O)O
T1: human Chemokine like receptor 1 (human, UniProt Q99788 1-373)
T1 sequence (looked up): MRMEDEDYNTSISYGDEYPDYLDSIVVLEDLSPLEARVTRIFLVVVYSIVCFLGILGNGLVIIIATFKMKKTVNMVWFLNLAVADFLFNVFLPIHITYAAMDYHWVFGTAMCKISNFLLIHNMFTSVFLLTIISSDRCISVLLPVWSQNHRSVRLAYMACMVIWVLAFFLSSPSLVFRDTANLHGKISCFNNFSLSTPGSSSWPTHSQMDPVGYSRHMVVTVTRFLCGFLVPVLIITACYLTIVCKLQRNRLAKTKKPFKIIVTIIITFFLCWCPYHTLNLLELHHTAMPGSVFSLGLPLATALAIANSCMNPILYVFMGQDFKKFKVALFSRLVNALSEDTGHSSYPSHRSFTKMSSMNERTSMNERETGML

B1: YW-162 (peptide)
peptide: [dNMeY]F[NMeL]P[dS]Q[1Nal][dA][Tic][NMeS]-OH
modifications: N-terminus assumed
SMILES: CN[C@H](Cc1ccc(O)cc1)C(=O)N[C@@H](Cc1ccccc1)C(=O)N(C)[C@@H](CC(C)C)C(=O)N1CCC[C@H]1C(=O)N[C@H](CO)C(=O)N[C@@H](CCC(N)=O)C(=O)N[C@@H](Cc1cccc2ccccc12)C(=O)N[C@H](C)C(=O)N1Cc2ccccc2C[C@H]1C(=O)N(C)[C@@H](CO)C(=O)O
B2: YW-161 (peptide)
peptide: Hydrocinnamoyl-[dY]F[NMeL]P[dS]QF[dA][Tic]S-NH2
SMILES: CC(C)C[C@@H](C(=O)N1CCC[C@H]1C(=O)N[C@H](CO)C(=O)N[C@@H](CCC(N)=O)C(=O)N[C@@H](Cc1ccccc1)C(=O)N[C@H](C)C(=O)N1Cc2ccccc2C[C@H]1C(=O)N[C@@H](CO)C(N)=O)N(C)C(=O)[C@H](Cc1ccccc1)NC(=O)[C@@H](Cc1ccc(O)cc1)NC(=O)CCc1ccccc1
B3: YW-153 (peptide)
peptide: [dY]F[NMeL]P[dS]QF[dA][dTi1c]S-OH
modifications: reading uncertain; also: printed as (D-Tyr)-Phe-(NMe-Leu)-Pro-(D-Ser)-Gln-Phe-(D-Ala)-(D-Ti1c)-Ser
B4: YW-133 (peptide)
peptide: {Palmitoyl-PEG8}-GG[dY]F[NMeL]P[dS]QF[dA][Tic]S-OH
SMILES: CCCCCCCCCCCCCCCC(=O)NCCOCCOCCOCCOCCOCCOCCOCCOCCC(=O)NCC(=O)NCC(=O)N[C@H](Cc1ccc(O)cc1)C(=O)N[C@@H](Cc1ccccc1)C(=O)N(C)[C@@H](CC(C)C)C(=O)N1CCC[C@H]1C(=O)N[C@H](CO)C(=O)N[C@@H](CCC(N)=O)C(=O)N[C@@H](Cc1ccccc1)C(=O)N[C@H](C)C(=O)N1Cc2ccccc2C[C@H]1C(=O)N[C@@H](CO)C(=O)O
B5: YW-142 (peptide)
peptide: [dNMeY]F[NMeL][Thz][dS]Q[1Nal][dA][Tic][NMeS]-OH
modifications: N-terminus assumed
SMILES: CN[C@H](Cc1ccc(O)cc1)C(=O)N[C@@H](Cc1ccccc1)C(=O)N(C)[C@@H](CC(C)C)C(=O)N1CSC[C@H]1C(=O)N[C@H](CO)C(=O)N[C@@H](CCC(N)=O)C(=O)N[C@@H](Cc1cccc2ccccc12)C(=O)N[C@H](C)C(=O)N1Cc2ccccc2C[C@H]1C(=O)N(C)[C@@H](CO)C(=O)O
B6: YW-163 (peptide)
peptide: [dNMeY]F[NMeL]P[dS]QF[dA][Tic]S-OH
modifications: N-terminus assumed
SMILES: CN[C@H](Cc1ccc(O)cc1)C(=O)N[C@@H](Cc1ccccc1)C(=O)N(C)[C@@H](CC(C)C)C(=O)N1CCC[C@H]1C(=O)N[C@H](CO)C(=O)N[C@@H](CCC(N)=O)C(=O)N[C@@H](Cc1ccccc1)C(=O)N[C@H](C)C(=O)N1Cc2ccccc2C[C@H]1C(=O)N[C@@H](CO)C(=O)O
B7: YW-91 (peptide)
peptide: [dY]FLP[dS]QF[dA][Pro(5R-Ph)]S-OH
modifications: N-terminus assumed
SMILES: CC(C)C[C@H](NC(=O)[C@H](Cc1ccccc1)NC(=O)[C@H](N)Cc1ccc(O)cc1)C(=O)N1CCC[C@H]1C(=O)N[C@H](CO)C(=O)N[C@@H](CCC(N)=O)C(=O)N[C@@H](Cc1ccccc1)C(=O)N[C@H](C)C(=O)N1[C@@H](c2ccccc2)CC[C@H]1C(=O)N[C@@H](CO)C(=O)O
B8: YW-146 (peptide)
peptide: [dNMeY]F[NMeL]P[dS]Q[2Nal][dA][Tic][NMeS]-OH
modifications: N-terminus assumed
SMILES: CN[C@H](Cc1ccc(O)cc1)C(=O)N[C@@H](Cc1ccccc1)C(=O)N(C)[C@@H](CC(C)C)C(=O)N1CCC[C@H]1C(=O)N[C@H](CO)C(=O)N[C@@H](CCC(N)=O)C(=O)N[C@@H](Cc1ccc2ccccc2c1)C(=O)N[C@H](C)C(=O)N1Cc2ccccc2C[C@H]1C(=O)N(C)[C@@H](CO)C(=O)O
B9: YW-98 (peptide)
peptide: [dY]F[NMeL]P[dS]QF[dA][Tic]S-OH
modifications: N-terminus assumed
SMILES: CC(C)C[C@@H](C(=O)N1CCC[C@H]1C(=O)N[C@H](CO)C(=O)N[C@@H](CCC(N)=O)C(=O)N[C@@H](Cc1ccccc1)C(=O)N[C@H](C)C(=O)N1Cc2ccccc2C[C@H]1C(=O)N[C@@H](CO)C(=O)O)N(C)C(=O)[C@H](Cc1ccccc1)NC(=O)[C@H](N)Cc1ccc(O)cc1
B10: YW-148 (peptide)
peptide: [dNMeY]F[NMeL][Thz][dS]Q[2Nal][dA][Tic]S-OH
modifications: N-terminus assumed
SMILES: CN[C@H](Cc1ccc(O)cc1)C(=O)N[C@@H](Cc1ccccc1)C(=O)N(C)[C@@H](CC(C)C)C(=O)N1CSC[C@H]1C(=O)N[C@H](CO)C(=O)N[C@@H](CCC(N)=O)C(=O)N[C@@H](Cc1ccc2ccccc2c1)C(=O)N[C@H](C)C(=O)N1Cc2ccccc2C[C@H]1C(=O)N[C@@H](CO)C(=O)O
B11: YW-160 (peptide)
peptide: [dY]FLP[dS]QF[dA][Tic]T-OH
modifications: N-terminus assumed
SMILES: CC(C)C[C@H](NC(=O)[C@H](Cc1ccccc1)NC(=O)[C@H](N)Cc1ccc(O)cc1)C(=O)N1CCC[C@H]1C(=O)N[C@H](CO)C(=O)N[C@@H](CCC(N)=O)C(=O)N[C@@H](Cc1ccccc1)C(=O)N[C@H](C)C(=O)N1Cc2ccccc2C[C@H]1C(=O)N[C@H](C(=O)O)[C@@H](C)O
B12: YW-125 (peptide)
peptide: [dNMeY]F[NMeL][Thz][dS]Q[2Nal][dA][Tic][NMeS]-OH
modifications: N-terminus assumed
SMILES: CN[C@H](Cc1ccc(O)cc1)C(=O)N[C@@H](Cc1ccccc1)C(=O)N(C)[C@@H](CC(C)C)C(=O)N1CSC[C@H]1C(=O)N[C@H](CO)C(=O)N[C@@H](CCC(N)=O)C(=O)N[C@@H](Cc1ccc2ccccc2c1)C(=O)N[C@H](C)C(=O)N1Cc2ccccc2C[C@H]1C(=O)N(C)[C@@H](CO)C(=O)O
B13: YW-134 (peptide)
peptide: {Palmitoyl-PEG8}-[βAla][βAla][dY]F[NMeL]P[dS]QF[dA][Tic]S-OH
SMILES: CCCCCCCCCCCCCCCC(=O)NCCOCCOCCOCCOCCOCCOCCOCCOCCC(=O)NCCC(=O)NCCC(=O)N[C@H](Cc1ccc(O)cc1)C(=O)N[C@@H](Cc1ccccc1)C(=O)N(C)[C@@H](CC(C)C)C(=O)N1CCC[C@H]1C(=O)N[C@H](CO)C(=O)N[C@@H](CCC(N)=O)C(=O)N[C@@H](Cc1ccccc1)C(=O)N[C@H](C)C(=O)N1Cc2ccccc2C[C@H]1C(=O)N[C@@H](CO)C(=O)O
B14: YW-132 (peptide)
peptide: [dY]FLP[dS]QF[dA][Tic]S-OH
modifications: not fully specified (N-terminus); printed as 3,5-dihydroxyphenylacetyl-(D-Tyr)-Phe-Leu-Pro-(D-Ser)-Gln-Phe-(D-Ala)-Tic-Ser-OH

Target: T1, human Chemokine like receptor 1
Test: cell-based or functional assay

Binder | EC50 (µM), activation of Tango CMKLR1-bla U2OS cells [µM]
B1 | 0.0026
B2 | 0.003
[dY]FLP[dS][NMeQ]F[dA][Tic]S-OH [YW-107] | > 50
[dY]FLP[dNMeS]QF[dA][Tic]S-OH [YW-106] | 24
B3 | 0.0085
[dY]FLP[dS]QF[dA][Ala(dip)]S-OH [YW-94] | 8.7
{3,5‑dihydroxyphenylacetyl}-[dY]FLP[dS]QF[dA][Tic]S [YW-131] | 0.0029
B4 | 0.0007
B5 | 0.0009
B6 | 0.0022
B7 | 0.46
B8 | 0.0014
B9 | 0.003
[dY]F[Nleu]P[dS]QF[dA][Tic]S-OH [YW-102] | 0.31
[dY]FLP[dS]QF[dA][Bip]S-OH [YW-95] | 30
B10 | 0.0005
B11 | 0.285
[dY]FLP[dS]QF[dNMeA][Tic]S-OH [YW-109] | 11
[dY]F[NMeV]P[dS]QF[dA][Tic]S-OH [YW-99] | 12
[dY]FLP[dS]QF[dA][S‑Pip]S-OH [YW-90] | > 50
[dY]FLP[dS][Gly(Nα-CH2CH2CONH2)]F[dA][Tic]S-OH [YW-108] | > 50
B12 | 0.0006
B13 | 0.0007
[dY]FLP[dS]QF[dA][Pro(4Ph)″]S-OH [YW-92] | 1
[dY]FLP[dS]Q[dS][dA][azaTic]S-OH [YW-147] | > 50
B14 | 0.0055
